Reference: patent US20040106557A1

Target: Prostate specific antigen (PSA), purified from human seminal fluid (human) (UniProt P07288)
Assay: gel filtration peak of ~30 kD after thrombin cleavage, GST-peptide IFMA on PSA captured by MAb 5E4

Work on “~30 kD component of thrombin-cleaved GST-C-4 (from UniProt P08515 1-218)” yielded a Binding activity (% of total), remaining after thrombin-treatment of 5.2%.
